One molecule from patent US20250092426, “CAS ENDONUCLEASES AND RELATED METHODS” (Flagship Pioneering Innovations VII, LLC, published 2025) can be followed below.

The data set has as its target T1, CasEnd-22 (synthetic construct).
T1 chain: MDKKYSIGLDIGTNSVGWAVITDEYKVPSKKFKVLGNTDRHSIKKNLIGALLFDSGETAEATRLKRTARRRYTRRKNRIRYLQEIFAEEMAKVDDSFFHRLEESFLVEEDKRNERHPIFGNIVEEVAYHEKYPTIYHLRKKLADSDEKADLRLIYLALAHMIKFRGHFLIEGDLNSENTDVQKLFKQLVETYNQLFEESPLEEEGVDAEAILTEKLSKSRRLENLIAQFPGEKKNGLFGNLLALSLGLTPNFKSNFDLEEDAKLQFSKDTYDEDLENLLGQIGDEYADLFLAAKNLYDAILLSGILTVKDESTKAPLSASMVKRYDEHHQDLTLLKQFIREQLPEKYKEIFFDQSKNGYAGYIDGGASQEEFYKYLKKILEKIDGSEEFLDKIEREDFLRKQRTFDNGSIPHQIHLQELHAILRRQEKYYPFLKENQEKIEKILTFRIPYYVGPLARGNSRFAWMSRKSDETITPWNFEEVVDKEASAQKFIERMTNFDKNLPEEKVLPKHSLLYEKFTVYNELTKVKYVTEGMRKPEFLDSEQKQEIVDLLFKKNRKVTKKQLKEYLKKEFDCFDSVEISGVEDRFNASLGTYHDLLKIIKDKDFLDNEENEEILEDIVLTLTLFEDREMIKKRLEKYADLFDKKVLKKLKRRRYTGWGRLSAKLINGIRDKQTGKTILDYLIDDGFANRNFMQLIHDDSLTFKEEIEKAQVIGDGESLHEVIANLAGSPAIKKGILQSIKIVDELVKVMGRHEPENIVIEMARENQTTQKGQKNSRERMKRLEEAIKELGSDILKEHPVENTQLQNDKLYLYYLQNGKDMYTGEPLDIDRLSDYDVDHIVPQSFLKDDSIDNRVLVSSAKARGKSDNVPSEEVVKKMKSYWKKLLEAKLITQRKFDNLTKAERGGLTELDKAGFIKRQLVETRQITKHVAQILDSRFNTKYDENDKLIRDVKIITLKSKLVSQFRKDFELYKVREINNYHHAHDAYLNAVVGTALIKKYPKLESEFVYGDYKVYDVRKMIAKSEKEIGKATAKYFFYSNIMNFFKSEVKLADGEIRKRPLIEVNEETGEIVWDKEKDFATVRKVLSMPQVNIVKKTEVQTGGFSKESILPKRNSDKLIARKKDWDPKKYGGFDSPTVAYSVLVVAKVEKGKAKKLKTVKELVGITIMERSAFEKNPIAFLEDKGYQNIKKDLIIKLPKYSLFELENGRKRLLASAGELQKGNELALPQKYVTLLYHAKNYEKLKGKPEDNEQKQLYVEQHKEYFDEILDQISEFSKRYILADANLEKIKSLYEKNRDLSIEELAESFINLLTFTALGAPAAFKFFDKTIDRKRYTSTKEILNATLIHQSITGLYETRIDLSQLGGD
Description: cell_activity; +++; K562, second nick guide SEQ 380; PAM not stated. The protocol: The ability of the candidate endonucleases, including endonucleases 1-38 (CasEnds 1-38) (set forth in Table 1 and SEQ ID NOS: 1-38, respectively), to mediate target nucleic acid editing in cells was assessed by amplicon sequencing of the endogenous hemoglobin subunit beta (eHBB) gene, wherein the percent of amplicons displaying the intended edit is measured. The editing system is comprised of a template RNA (designed to introduce the Single Nucleotide Polymorphism), a second nick guide RNA, and a fusion protein consisting of retroviral reverse transcriptase and the individual subject Cas endonuclease.
Briefly, 250 ng of plasmid DNA encoding the subject fusion protein (containing one of the subject CasEnds), 250 ng each of plasmid DNA encoding the template RNA and the second nick guide RNA were added to 15 μL Lonza SF buffer containing 250,000 K562 cells. Nucleofection was mediated utilizing program FF-120-DA on a Lonza nucleofector. The day of nucleofection was marked as day 0. At day 3, the cells were harvested and subjected to lysis buffer treatment overnight. Genomic DNA was extracted and used for targeted amplicon sequencing to evaluate the performance of each Cas endonucleases based on their percent edit efficiencies.

B1: HBB template RNA ; HBB protospacer (ssRNA ; dsDNA)
RNA: CAUGGUGCACCUGACUCCUGGUUUUAGAGCUAGAAAUAGCAAGUUAAAAUAAGGCUAGUCCGUUAUCAACUUGAAAAAGUGGCACCGAGUCGGUGCACGGCAGACUUCUCUGCCGGAGUCAGGUGC
DNA 1: CATGGTGCACCTGACTCCTG
DNA 2: CAGGAGTCAGGTGCACCATG
With B1, the activity is ≥ 100 % of reference.
